The labels stand for the following.
B1: glutathione S-transferase (GST)-tagged HBoV1 NP1 (GST-NP1) (natural protein)
chain: MSSGNMKDKHRSYKRKGSPERGERKRHWQTTHHRSRSRSPIRHSGERGSGSYHQEHPISHLSSCTASKTSDQVMKTRESTSGKKDNRTNPYTVFSQHRASNPEAPGWCGFYWHSTRIARDGTNSIFNEMKQQFQQLQIDNKIGWDNTRELLFNQKKTLDQKYRNMFWHFRNNSDCERCNYWDDVYRRHLANVSSQTEADEITDEEMLSAAESMEADASN
notes: also called pGST-NP1; source: E. coli BL21/DE3 pLysS, purified

Assay in all cases: BLI; BLItz; His-tagged protein at different concentrations mounted on Ni-NTA biosensors, dipped into 4 μM GST-NP1 or control GST^Flag; Kinetic buffer 50 mM Tris-HCl pH 7.4, 150 mM NaCl
Holding throughout (conditions): both partners purified

For one test, the target named is T1, RPA70^His (UniProt P27694 1-616).
T1 construct: source: E. coli BL21/DE3 pLysS, purified

The next test has as its target T2, RPA70-AB^His (aa181-422) (UniProt P27694 181-422).
T2 construct: also called middle AB domain; source: E. coli BL21/DE3 pLysS, purified

Test [1] addresses T3, hexahistidine (His)-tagged Ku70 (Ku70^His) (UniProt P12956 1-609).
T3 construct: also called full length Ku70; Ku70 monomer; source: E. coli BL21/DE3 pLysS, purified

In test [2] the target is B1.

T1 sequence (P27694 whole entry): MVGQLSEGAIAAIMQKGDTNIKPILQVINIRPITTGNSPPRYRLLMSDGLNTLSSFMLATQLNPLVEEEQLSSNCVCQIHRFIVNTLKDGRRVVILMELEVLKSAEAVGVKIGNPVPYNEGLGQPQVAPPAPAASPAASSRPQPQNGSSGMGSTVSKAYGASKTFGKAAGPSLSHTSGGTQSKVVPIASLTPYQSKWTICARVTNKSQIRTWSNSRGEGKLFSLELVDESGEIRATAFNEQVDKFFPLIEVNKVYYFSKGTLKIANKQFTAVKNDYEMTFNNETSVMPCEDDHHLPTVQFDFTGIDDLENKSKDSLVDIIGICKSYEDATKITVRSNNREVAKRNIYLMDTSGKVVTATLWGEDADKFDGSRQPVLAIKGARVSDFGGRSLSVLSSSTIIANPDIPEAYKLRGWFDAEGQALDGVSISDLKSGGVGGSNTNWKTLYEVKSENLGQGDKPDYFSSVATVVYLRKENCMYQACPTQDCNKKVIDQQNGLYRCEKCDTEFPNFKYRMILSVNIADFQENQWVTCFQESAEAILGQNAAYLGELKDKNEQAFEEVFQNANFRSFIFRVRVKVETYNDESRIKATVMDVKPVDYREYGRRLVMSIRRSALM
T2 sequence (P27694 181-422): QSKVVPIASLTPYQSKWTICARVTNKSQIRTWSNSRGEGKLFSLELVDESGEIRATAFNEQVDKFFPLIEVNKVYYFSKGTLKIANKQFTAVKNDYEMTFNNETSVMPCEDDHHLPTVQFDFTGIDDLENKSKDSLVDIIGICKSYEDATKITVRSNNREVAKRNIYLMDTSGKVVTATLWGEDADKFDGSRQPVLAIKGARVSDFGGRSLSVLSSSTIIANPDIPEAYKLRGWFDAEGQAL
T3 sequence (P12956 whole entry): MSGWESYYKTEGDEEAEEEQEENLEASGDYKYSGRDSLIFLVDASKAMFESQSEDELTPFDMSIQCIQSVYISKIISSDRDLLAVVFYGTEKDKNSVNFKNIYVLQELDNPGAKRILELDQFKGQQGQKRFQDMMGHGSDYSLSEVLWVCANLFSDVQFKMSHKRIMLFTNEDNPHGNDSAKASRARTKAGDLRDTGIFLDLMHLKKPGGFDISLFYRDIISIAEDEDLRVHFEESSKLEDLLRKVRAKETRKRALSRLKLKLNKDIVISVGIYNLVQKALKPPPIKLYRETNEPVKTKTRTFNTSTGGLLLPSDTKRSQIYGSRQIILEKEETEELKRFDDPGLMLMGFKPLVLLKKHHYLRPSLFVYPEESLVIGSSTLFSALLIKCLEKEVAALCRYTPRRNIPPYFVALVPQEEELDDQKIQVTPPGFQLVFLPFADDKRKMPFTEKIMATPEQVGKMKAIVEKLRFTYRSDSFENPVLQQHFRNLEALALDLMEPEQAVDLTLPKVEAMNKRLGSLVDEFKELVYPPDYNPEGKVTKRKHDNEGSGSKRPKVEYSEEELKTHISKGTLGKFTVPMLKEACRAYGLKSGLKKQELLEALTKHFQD

The term Kd denotes a measure of binding affinity in units of concentration. A high value points to a looser complex. Turning to B1, the values for the dissociation constant (Kd) (in the test with RPA70^His; with RPA70-AB^His (aa181-422); in test [1]) were 122 nM, 526 nM and 95 nM, respectively.

B2: MBP-Ku70-β-barrel^His (aa266-439) (domain or fragment, UniProt P12956 266-439, looked up)
chain: DIVISVGIYNLVQKALKPPPIKLYRETNEPVKTKTRTFNTSTGGLLLPSDTKRSQIYGSRQIILEKEETEELKRFDDPGLMLMGFKPLVLLKKHHYLRPSLFVYPEESLVIGSSTLFSALLIKCLEKEVAALCRYTPRRNIPPYFVALVPQEEELDDQKIQVTPPGFQLVFLPF
notes: also called MBP-β-barrel^His; Ku70 β-barrel domain; source: E. coli BL21/DE3 pLysS, purified
With B2, in test [2], the affinity, expressed as Kd, was 722 nM.

Values taken from paper PMC9197078, “The small nonstructural protein NP1 of human bocavirus 1 directly interacts with Ku70 and RPA70 and facilitates viral DNA replication” (PLoS Pathogens, 2022).
